Measurements: the supplement of paper PMC10567573
± gives the standard deviation.

Assay: protein stability index of a GFP-peptide fusion (GPS, HEK-293T) (PSI 1-6); higher = more stable
[1] = treatment: DMSO, c terminus: a fixed tail appended
[2] = treatment: MLN4924 1 uM, 8 h, c terminus: a fixed tail appended
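Also: 24-mer peptide tiles fused after GFP, lentivirally expressed, FACS-sorted into six equal bins by GFP/DsRed ratio, decoded by Illumina sequencing, PSI is the read-weighted mean bin number.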

Sequence | protein stability index [1] | protein stability index [2] | protein stability index (treatment: DMSO, c terminus: native) | protein stability index (treatment: MLN4924 1 uM, 8 h, c terminus: native)
ISLFFLIIYMGSFMLMLLVLGIQV [CDS1] | 3.18 ± 0.23 | 3.33 ± 0.11 | – | –
ISSIEAQLSELRSEMECQNQEYKM [KRT13] | 4.76 ± 0.23 | 4.69 ± 0.29 | – | –
ISVILPTVHEVDIFRCFCPVFLHS [DENND6A] | 3.07 ± 0.19 | 3 ± 0.56 | – | –
ITNVDLREYLSEEVQAVHKNTTYD [USP39] | 4.2 ± 0.24 | 4.17 ± 0.19 | – | –
ITTIGYGHAAPGTDAGKAFCMFYA [KCNK9] | 2.9 ± 0.49 | 2.8 ± 0.56 | – | –
ITYPPGVKEISDKISKEEMVRRLK [PDS5B] | 3.49 ± 0.36 | 3.73 ± 0.44 | – | –
KALWEDKTSLWEEENALWEEERAF [CCDC70] | 3.79 ± 0.18 | 3.87 ± 0.14 | – | –
KARVKPPEGYDVVAVYPNAKVELV [PDLIM4] | 3.02 ± 0.18 | 3.31 ± 0.28 | – | –
KCASDIFQASNPYLPTRGGTTMAS [TRIM55] | 2.89 ± 0.22 | 2.86 ± 0.16 | – | –
KCGNCQTKLHDIDGVPHLILIASR [KMT5A] | 2.35 ± 0.46 | 2.51 ± 0.41 | – | –
KDGEYCWRWTGFNFGFDLLVTYTN [GMCL1] | 3.44 ± 0.41 | 2.89 ± 0.46 | – | –
KDLFEEKIKKSPLTICYPEYAGSN [GNAI1] | 3.96 ± 0.36 | 4.09 ± 0.21 | – | –
KDLNENLAATQGLAHMIAECKKLF [DLC1] | 2.39 ± 0.45 | 2.3 ± 0.34 | – | –
KDMNFLKRYAGREEHWVGLKKEPG [CD69] | 3.61 ± 0.16 | 3.79 ± 0.21 | – | –
KDWLEGTVRGATGIFPLSFVKILK [NCF4] | 2.49 ± 0.5 | 2.38 ± 0.52 | – | –
KEAGVQKLILTSSASVIFEGVDIK [NSDHL] | 2.99 ± 0.3 | 2.84 ± 0.19 | – | –
KEAVLAMEKKSKPKNSVWKRLKSP [RIT1] | 4.23 ± 0.21 | 4.19 ± 0.27 | – | –
KEFTLLLSAANVCLDPIIYFFLCQ [P2RY14] | 3.06 ± 0.56 | 2.97 ± 0.17 | – | –
KEKDSPFKPKLYKGDRGLPLEGSA [RBBP5] | 4.57 ± 0.34 | 4.32 ± 0.23 | – | –
KEQDVEKELRDGGEQDTWAGEGAE [NFE2L1] | – | 5.83 ± 0.073 | – | –
KESESEAKVDGETASDSESRAESA [CDS2] | 5.6 ± 0.17 | 5.34 ± 0.34 | – | –
KETAHDLDVKSPPEPRSEVVPARL [RIPK4] | 4.8 ± 1.2 | 4.88 ± 0.86 | – | –

Sequence | protein stability index [1] | protein stability index [2] | protein stability index (treatment: DMSO, c terminus: native) | protein stability index (treatment: MLN4924 1 uM, 8 h, c terminus: native)
KGNPEEEDVDTSQVLYEWEQGFSQ [CTNNB1] | 5.11 ± 0.25 | 5.25 ± 0.28 | – | –
KITDFQLHASTVKRYGLGAHRGRL [CPXM2] | 3.133 ± 0.018 | 3.22 ± 0.53 | – | –
KIVLCAVSHVFMLLFNVKSPTDIQ [RHOBTB3] | 3.16 ± 0.17 | 3.09 ± 0.22 | – | –
KKCVKKFVEYCDVNNDKSISVQEL [SMOC2] | 3.57 ± 0.21 | 3.68 ± 0.49 | – | –
KKIRQVIRKYNYVAMDTEFPGVVA [CNOT7] | 2.79 ± 0.35 | 2.24 ± 0.28 | – | –
KKMSCQQFIANLDQLNDGQDFAKD [PSD2] | 4.41 ± 0.22 | 4.4 ± 0.2 | – | –
KLCKKGLAATTSMAYAKLMLTVMT [FANCE] | 2.33 ± 0.52 | 2.22 ± 0.43 | – | –
KLGPALKIYEYHVKPLQTKHLKNN [SAMD13] | 2.46 ± 0.14 | 2.54 ± 0.22 | – | –
KLQKEKEELERRFEDEVKRLGWQQ [MTUS2] | 4.36 ± 0.35 | 4.6 ± 0.32 | – | –
KLSAKSLQTLRSFSHTLVSLSLFG [ZER1] | 3 ± 0.45 | 2.95 ± 0.43 | – | –
KLSPKKTWEGFIGGFFATVVFGLL [CDS2] | 2.33 ± 0.43 | 2.01 ± 0.28 | – | –
KPTEPSVPVQPLLPESLARSLLPS [FBF1] | 4.33 ± 0.11 | 4.43 ± 0.26 | – | –
KQIKAGAYDFPSPEWDTVTPEAKD [CAMK2A] | 5.34 ± 0.26 | 5.27 ± 0.18 | – | –
KQQWEIMHKHNETSQKIAARAFAQ [RSPH3] | 3.41 ± 0.2 | 3.38 ± 0.14 | – | –
KRANAAFLIGAYAVIYLKKTPEEA [CDC14A] | 2.38 ± 0.57 | 2.21 ± 0.22 | – | –
KRASAPTFDNDYSLSELLSQLDSG [RIPK4] | 3.75 ± 0.37 | 3.56 ± 0.15 | – | –
KRKVDTGGFLSESKDCKPPVYLLL [MYBL2] | 2.01 ± 0.51 | 2.61 ± 0.72 | – | –
KRLCGLKVEVDMEKIAAEIAQAEE [SMARCE1] | 2.25 ± 0.12 | 3.63 ± 0.37 | – | –
KRMSELCIDFNKNLNEDDTFLVFS | 2.08 ± 0.25 | 2.58 ± 0.11 | – | –
KRSVYIDARDEELEKDTMDNWDEK [ZC3H15] | 4.98 ± 0.31 | 4.88 ± 0.24 | – | –
KSKASFLLLASGLVITDFFGHLIN [PTGFR] | 3.11 ± 0.27 | 2.88 ± 0.57 | – | –
KSNGRGGSQAGGSGSAGQYGSDQQ [MYOZ1] | 5.49 ± 0.23 | 5.4 ± 0.14 | – | –

Sequence | protein stability index [1] | protein stability index [2] | protein stability index (treatment: DMSO, c terminus: native) | protein stability index (treatment: MLN4924 1 uM, 8 h, c terminus: native)
KSSTVGLVTLNDMKAKQEALVKER [FAM50A] | 4.69 ± 0.31 | 4.45 ± 0.39 | – | –
KTCSRVDHCAQQDHGCEQLCLNTE [MATN2] | 4.77 ± 0.19 | 4.77 ± 0.21 | – | –
KVLNMWCCCFFKRRKRKTIQRHK [CSNK1G3] | – | – | 2.56 ± 0.16 | 2.86 ± 0.22
KVLTEPEVRYYLRQIVSGLKYLHE [PLK2] | 3.19 ± 0.29 | 2.42 ± 0.33 | – | –
KVVLSDAYAHPQQKVAVYRALQAA [TRADD] | 2.9 ± 0.41 | 3.24 ± 0.25 | – | –
KWLSCGFMLEIVTPTSLSSLSNAV [FBXO33] | 3.04 ± 0.57 | 3.57 ± 0.76 | – | –
KYKRRRFQKTKNLLTGETEADPEM [CLPTM1] | 4.83 ± 0.28 | 4.57 ± 0.4 | – | –
LANACLPVRTTNKISKQFVAPADV [ZSWIM9] | 3.27 ± 0.2 | 3.5 ± 0.21 | – | –
LANGRALSAGSPPVPPGWNPNSSS [DLX1] | 3.93 ± 0.22 | 4 ± 0.29 | – | –
LANNQCMATESVDHELGRCTDSVV [EHMT1] | 4.74 ± 0.093 | 4.71 ± 0.074 | – | –
LAQFPNTLLGNPKKRMRYFDPLRN [KCNA1] | 2.45 ± 0.12 | 2.48 ± 0.12 | – | –
LAWASYDQTGKEVADRWYSEIKNY [GLIPR2] | 2.87 ± 0.5 | 3.05 ± 0.23 | – | –
LAWRIVNDTYRTDLCLLYPPFMIA [CCNC] | 2.86 ± 0.49 | 3.34 ± 0.71 | – | –
LCKATSPADALQYLLQFARKPVEA [INTS4] | 2.05 ± 0.28 | 2.12 ± 0.29 | – | –
LCKLFPFLQKSSVGITVLNLCALS [EDNRA] | 2.47 ± 0.18 | 2.72 ± 0.57 | – | –
LDKSTKLVETAIQSLDEPGGATFL [TRIM63] | 4.13 ± 0.29 | 4.17 ± 0.28 | – | –
LDREIRLQRLSHSGSRVRVGFRLC [SCNN1D] | 2.39 ± 0.17 | 2.48 ± 0.16 | – | –
LDRERAAANEQLTRAILRERICSE [CHCHD3] | 4.14 ± 0.23 | 4.1 ± 0.42 | – | –
LDSEIKKNSDGMEAAGVQIQMVNE [CD207] | 5.41 ± 0.59 | 5.22 ± 0.35 | – | –
LDVECHEKEKHVNQLQTKVAVLEQ [SASS6] | 5.03 ± 0.11 | 5.07 ± 0.21 | – | –
LECEINTYRSLLESEDCKLPCNPC [KRT34] | 3.81 ± 0.16 | 3.94 ± 0.35 | – | –
